Measurements reported in article PMC10967930.

Tests used:
[1] = molecular target: human PF4 isolated from human platelets (human); experiment: other fluorescence titration
[2] = molecular target: full-length SARS-CoV-2 spike protein of original COVID-19 (SARS-CoV-2) (UniProt P0DTC2); experiment: ELISA

Substance	Kd [1] [nM]	OD at 450 nm [2]
full-length SARS-CoV-2 spike protein of original COVID-19 (from UniProt P0DTC2) (natural protein)	586	–
human PF4 isolated from human platelets (natural protein)	–	> 0.5
